Each block holds one sequence with its values, some of them ahead of it.
How the values were obtained:
HLA-B*27:05 = test: IEDB peptide-MHC binding, purified MHC/direct/fluorescence; filed as Kd, often an IC50 or EC50 that approximates it; ≥ and ≤ were set here for values at or beyond the usual limits of such assays
HLA-A*26:01 = test: as above
HLA-A*30:01 = test: as above
HLA-B*08:01 = test: as above
HLA-A*11:01 = test: as above
HLA-A*69:01 = test: as above
HLA-B*07:02 = test: as above
HLA-B*15:01 = test: as above
HLA-A*03:01 = test: as above
HLA-A*01:01 = test: as above
HLA-B*58:01 [1] = test: as above
HLA-A*02:01 = test: as above
HLA-B*40:01 = test: as above
HLA-A*24:03 = test: as above; settings: source organism: Collimonas fungivorans
HLA-A*23:01 = test: IEDB peptide-MHC binding, purified MHC/competitive/fluorescence; filed as Kd, often an IC50 or EC50 that approximates it; ≥ and ≤ were set here for values at or beyond the usual limits of such assays; settings: source organism: Salmonella enterica subsp. enterica serovar Typhi
HLA-B*58:01 [2] = test: as above; settings: source organism: Mycobacterium tuberculosis C
HLA-C*15:02 = test: IEDB peptide-MHC binding, purified MHC/direct/fluorescence; filed as Kd, often an IC50 or EC50 that approximates it; ≥ and ≤ were set here for values at or beyond the usual limits of such assays; settings: source organism: Cryptosporidium parvum
HLA-A*31:01 = test: as above
HLA-B*57:01 = test: as above; settings: source organism: Cryptosporidium parvum
HLA-B*35:01 = test: as above
HLA-B*44:02 = test: as above
HLA-B*15:17 = test: as above; settings: source organism: Cryptosporidium parvum
[3] = source organism: Collimonas fungivorans
[4] = source organism: Cryptosporidium parvum
[5] = source organism: Vibrio cholerae

Kd (HLA-B*27:05; [3]): ≥ 20 µM
Kd (HLA-A*26:01; [3]): ≥ 20 µM
Kd (HLA-A*30:01; [3]): 0.00979 µM
Kd (HLA-B*08:01; [3]): ≥ 20 µM
Kd (HLA-A*11:01; [3]): 0.168 µM
Kd (HLA-A*69:01; [3]): ≥ 20 µM
Kd (HLA-B*07:02; [3]): ≥ 20 µM
Kd (HLA-B*15:01; [3]): ≥ 20 µM
Kd (HLA-A*03:01; [3]): 2.28 µM
Kd (HLA-A*01:01; [3]): ≥ 20 µM
Kd (HLA-B*58:01 [1]; [3]): ≥ 20 µM
Kd (HLA-A*02:01; [3]): ≥ 20 µM
Kd (HLA-B*40:01; [3]): ≥ 20 µM
Kd (HLA-A*24:03): 2.4 µM
Sequence: AYSPFAFKK

Sequence: IWQWIHHEK
Kd (HLA-A*23:01): 0.178 µM

Sequence: RSFRIHILF
Kd (HLA-B*58:01 [2]): 4.4 µM
Kd (HLA-B*15:01; source organism: Mycobacterium tuberculosis): ≥ 10 µM

Sequence: ISCQIYNAL
Kd (HLA-B*27:05; [4]): ≥ 20 µM
Kd (HLA-A*26:01; [4]): ≥ 20 µM
Kd (HLA-B*08:01; [4]): ≥ 20 µM
Kd (HLA-C*15:02): 0.385 µM
Kd (HLA-A*11:01; [4]): ≥ 20 µM
Kd (HLA-A*31:01; [4]): ≥ 20 µM
Kd (HLA-A*69:01; [4]): ≥ 20 µM
Kd (HLA-B*07:02; [4]): ≥ 20 µM
Kd (HLA-B*15:01; [4]): 0.27 µM
Kd (HLA-A*03:01; [4]): ≥ 20 µM
Kd (HLA-B*57:01): ≥ 20 µM
Kd (HLA-A*01:01; [4]): ≥ 20 µM
Kd (HLA-B*35:01; [4]): 0.169 µM
Kd (HLA-A*02:01; [4]): ≥ 20 µM
Kd (HLA-B*40:01; [4]): 0.192 µM
Kd (HLA-B*44:02; [4]): ≥ 20 µM
Kd (HLA-B*15:17): 0.0826 µM

Sequence: GEHWLGRIW
Kd (HLA-B*27:05; [5]): 13.1 µM
Kd (HLA-A*26:01; [5]): ≥ 20 µM
Kd (HLA-A*30:01; [5]): ≥ 20 µM
Kd (HLA-B*08:01; [5]): ≥ 20 µM
Kd (HLA-A*11:01; [5]): ≥ 20 µM
Kd (HLA-A*31:01; [5]): ≥ 20 µM
Kd (HLA-A*69:01; [5]): ≥ 20 µM
Kd (HLA-B*07:02; [5]): ≥ 20 µM
Kd (HLA-B*15:01; [5]): ≥ 20 µM
Kd (HLA-A*03:01; [5]): ≥ 20 µM
Kd (HLA-A*01:01; [5]): ≥ 20 µM
Kd (HLA-B*35:01; [5]): ≥ 10 µM
Kd (HLA-B*58:01 [1]; [5]): 19.4 µM
Kd (HLA-A*02:01; [5]): ≥ 20 µM
Kd (HLA-B*40:01; [5]): 0.858 µM
Kd (HLA-B*44:02; [5]): 3.83 µM

Reference: the Immune Epitope Database (IEDB)
